Results as given in paper PMC6718376.

Assays:
[1] = molecular target: respiratory syncytial virus protein F (respiratory syncytial virus) (UniProt P03420); assay: plasmonic light-scattering biosensor array (localised gold nanoparticle plasmon); Fab assay: RSVF immobilised on array spots by EDC/NHS coupling, BSA reference spots and BSA blocking; NISTmAb injected at 1.56, 3.23 and 6.25 nM in PBS; global fit to the Langmuir 1:1 model
[2] = molecular target: Pierce recombinant protein A/G; assay: plasmonic light-scattering biosensor array (localised gold nanoparticle plasmon); Fc assay: protein A/G immobilised on array spots by EDC/NHS coupling, BSA reference spots and BSA blocking; antibody in PBS; NISTmAb kinetics from a global Langmuir fit to low concentrations with ϑm floating; all antibody samples at 100 nM for 300 s, 500 s wash
[3] = molecular target: NISTmAb (NIST RM 8671), recombinant humanized IgG1κ specific to respiratory syncytial virus protein F (human (humanized IgG1κ)); assay: plasmonic light-scattering biosensor array (localised gold nanoparticle plasmon); antigen assay: antibody (100 nM) first captured by its Fc on the protein A/G surface, then antigen at 100 nM in PBS injected for 300 s; stoichiometry from ϑm antigen/ϑm Fc normalised for the masses of antigen and intact IgG
NISTmAb (NIST RM 8671), recombinant humanized IgG1κ specific to respiratory syncytial virus protein F (human (humanized IgG1κ)), sequence (heavy, as listed by the source, chain 1 of 2): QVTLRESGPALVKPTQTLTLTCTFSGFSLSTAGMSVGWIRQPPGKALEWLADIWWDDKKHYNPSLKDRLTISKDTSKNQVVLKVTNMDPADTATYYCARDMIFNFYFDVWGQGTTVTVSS
NISTmAb (NIST RM 8671), recombinant humanized IgG1κ specific to respiratory syncytial virus protein F (human (humanized IgG1κ)), sequence (light, as listed by the source, chain 2 of 2): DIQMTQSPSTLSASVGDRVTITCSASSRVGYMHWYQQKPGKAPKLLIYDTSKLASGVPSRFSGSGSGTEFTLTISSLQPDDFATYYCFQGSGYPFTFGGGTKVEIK

**Q.** Which results are given for “NISTmAb (NIST RM 8671), recombinant humanized IgG1κ specific to respiratory syncytial virus protein F (antibody)”?
**A.** Kd [1]: 2.7 nM; koff [1]: 0.00024 s⁻¹; kon [1]: 89000 M⁻¹ s⁻¹; koff [2]: 2e-05 s⁻¹; kon [2]: 59000 M⁻¹ s⁻¹

**Q.** How did the stoichiometry N (antigens per antibody) [3] turn out when “respiratory syncytial virus protein F (from UniProt P03420 26-574) (natural protein)” was run?
**A.** 1.31
